Experimental data published in paper PMC2762480.

Tests used:
[1] = target: s-dEGFRΔV (Drosophila EGF receptor extracellular region, domains I to IV) (Drosophila melanogaster); experiment: AUC
[2] = target: s-dEGFRΔV/Spitz complex (Drosophila melanogaster) (UniProt Q01083); experiment: AUC

Substance	Kd [1] [µM]	stoichiometry N [2]
s-dEGFRΔV (Drosophila EGF receptor extracellular region, domains I to IV) (domain or fragment)	40	
s-dEGFRΔV/Spitz complex (from UniProt Q01083 29-143)		2
